For experiment [1], the target named is T1, human TIGIT protein (human, UniProt Q495A1 22-141, limits assumed).
T1 construct: Recombinant protein (Genentech) used in ELISA screening and as SPR analyte; also called TIGIT antigen
T1 sequence: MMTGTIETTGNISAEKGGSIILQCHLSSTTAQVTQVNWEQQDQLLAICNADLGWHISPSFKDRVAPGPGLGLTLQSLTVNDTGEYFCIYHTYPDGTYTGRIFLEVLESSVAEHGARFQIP
As to the kind of experiment: SPR (BIACORE), N=2.

Experiment [2] concerns the target T2, human TIGIT on activated human primary T cells (human, UniProt Q495A1 22-244).
T2 construct: also called Human T cell
T2 sequence: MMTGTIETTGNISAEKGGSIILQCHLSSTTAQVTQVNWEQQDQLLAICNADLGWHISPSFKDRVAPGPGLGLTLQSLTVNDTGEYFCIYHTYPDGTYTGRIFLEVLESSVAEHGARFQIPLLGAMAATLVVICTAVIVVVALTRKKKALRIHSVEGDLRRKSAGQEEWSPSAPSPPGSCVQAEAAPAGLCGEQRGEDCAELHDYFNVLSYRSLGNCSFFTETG
Nature of the experiment: FACS, activated human T cells. The protocol:
The OMT- and SD-derived anti-TIGIT clones were also tested for binding to human primary T cells by FACS analysis. Human PBMC were activated for with plate-bound anti-CD3 (5 μg/ml) and soluble anti-CD28 (2 μg/ml) for 2 days as described in Yu et al. Nature Immunology. 10: 48-57, 2009, which is incorporated herein by reference in its entirety. Cells were then washed and incubated with incubated with each anti-TIGIT antibody at the indicated concentrations and then detected via a FITC-labeled anti-hIgG antibody. Cells were also stained with anti-CD4, anti-CD8, and anti-CD25 (BD bioscience). Human CD4+(CD25+CD4+) and human CD8+(CD25+CD8+) T cells were assessed for binding by the anti-TIGIT clones by FACS. All samples were acquired on LSR-II or LSR-Fortessa instruments (BD Biosciences) and analyzed using FlowJo software (Treestar).
Background: A flow cytometer gives signals particle by particle.

Experiment [3] concerns the target T3, cynomolgus TIGIT on CHO cells (cynomolgus monkey, UniProt A0A7N9I9V4 89-312).
T3 construct: whole, on cells; also called CHO-cyTIGIT; cyTIGIT
Nature of the experiment: FACS blocking assay: labelled PVR-Fc (blocked ligand; text: cyPVR, scheme of FIG. 4A prints hPVR.Fc) on CHO cells expressing cyno TIGIT. The protocol:
These studies were further validated in CHO-TIGIT PVR blocking experiments in which TIGIT-expressing CHO cells were incubated with labeled PVR-Fc fusion protein in the presence of anti-TIGIT antibody or an human IgG1 control (FIG. 4A).

In experiment [4] the target is T1, human TIGIT protein. As to the kind of experiment: SPR, bivalent affinity. In general terms: In SPR one partner is held on a chip, and binding of the other changes the refractive index at the surface.
The target in experiment [5] is cynomolgus monkey (cyno) TIGIT protein (cynomolgus monkey, UniProt A0A7N9I9V4 89-209). Nature of the experiment: SPR, bivalent affinity.
cynomolgus monkey (cyno) TIGIT protein, sequence (A0A7N9I9V4 entry or part of it): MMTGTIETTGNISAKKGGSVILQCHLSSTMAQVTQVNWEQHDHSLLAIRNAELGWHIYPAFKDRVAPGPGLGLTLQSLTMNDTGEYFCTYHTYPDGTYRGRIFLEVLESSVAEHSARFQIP
Experiment [6] has as its target T4, hTIGIT mutant L73A (human, UniProt Q495A1).
T4 sequence (TIGIT, looked up): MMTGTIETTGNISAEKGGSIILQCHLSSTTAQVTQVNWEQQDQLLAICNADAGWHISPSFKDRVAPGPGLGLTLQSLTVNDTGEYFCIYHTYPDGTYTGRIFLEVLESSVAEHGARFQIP
As to the kind of experiment: SPR (BIACORE), N=2.

The target of experiment [7] is T5, hTIGIT mutant Y113A (human, UniProt Q495A1).
T5 sequence (TIGIT, looked up): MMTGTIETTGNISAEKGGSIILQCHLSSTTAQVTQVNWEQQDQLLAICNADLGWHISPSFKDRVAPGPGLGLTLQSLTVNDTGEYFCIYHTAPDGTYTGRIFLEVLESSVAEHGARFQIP
As to the kind of experiment: SPR (BIACORE), N=2.

The target of experiment [8] is T6, hTIGIT mutant Q53A (human, UniProt Q495A1).
T6 sequence (TIGIT, looked up): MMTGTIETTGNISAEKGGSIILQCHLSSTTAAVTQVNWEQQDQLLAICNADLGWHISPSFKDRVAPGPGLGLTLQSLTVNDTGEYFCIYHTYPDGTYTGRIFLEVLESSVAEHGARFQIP
As to the kind of experiment: SPR (BIACORE), N=2.

In experiment [9] the target is T7, mu TIGIT (target named for 10A7 in the heads of Tables 6 and 7) (mu (mouse), UniProt P86176 29-249, limits assumed).
T7 construct: Only the column head says mu TIGIT; the text describes no mouse TIGIT cells
T7 sequence (looked up): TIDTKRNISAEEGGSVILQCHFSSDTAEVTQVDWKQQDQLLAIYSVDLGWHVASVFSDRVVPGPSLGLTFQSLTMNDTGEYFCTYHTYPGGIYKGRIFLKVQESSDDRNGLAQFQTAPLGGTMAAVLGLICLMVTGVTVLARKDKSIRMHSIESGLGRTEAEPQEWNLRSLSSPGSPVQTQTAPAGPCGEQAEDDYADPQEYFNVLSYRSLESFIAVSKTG
Nature of the experiment: TR-FRET, TIGIT with ST-CD226 on CHO cells; competitor CD226. (In general: In TR-FRET formats the signal depends on donor and acceptor labels being close together.)

Experiment [10] concerns the target T7, mu TIGIT (target named for 10A7 in the …). Nature of the experiment: FACS, T cell binding (row: Human T cell; column head: mu TIGIT). In a few lines: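 Activated human peripheral blood T cells were stained with each anti-TIGIT antibody and analysed by flow cytometry. Binding was detected with a FITC-labelled anti-human IgG, gated on CD25+CD4+ and CD25+CD8+ cells (LSR-II or LSR-Fortessa, FlowJo). EC50 values come from these titrations.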

Where only a bound is given, the exact number is not on record here.

T3 sequence (A0A7N9I9V4 entry or part of it): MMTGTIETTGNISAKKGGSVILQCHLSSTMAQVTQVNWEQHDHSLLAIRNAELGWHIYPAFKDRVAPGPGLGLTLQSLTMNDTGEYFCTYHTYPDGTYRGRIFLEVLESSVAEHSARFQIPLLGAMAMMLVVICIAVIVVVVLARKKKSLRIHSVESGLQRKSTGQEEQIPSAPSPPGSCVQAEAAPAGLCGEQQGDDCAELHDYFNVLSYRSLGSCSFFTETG

B1: 7.4A3.C96S.Q1E (antibody, V domains shown)
VH: EVQLVQSGSDLKKPGASVRVSCKASGYTFTSYPMNWVRQAPGHGLEWMGWINTNTGNPTYVQGFTGRFVFSLDTSVNTAYLQISSLKAEDTAVYFCARTGGHTYDSYAFDVWGQGTMVTVSS
VL: DIQLTQSPTFLSASVGDRVTITCRASQVISSSLAWYQQNPGKAPKLLIYAASTLQSGVPSRFSGSGSGTEFTLTISSLQPEDFVTYYCQHLHGYPSNFGQGTKVEIK
notes: also called 7.4A3.Q1E.C96S
In experiment [1], B1 showed a Kd of 1.8 nM. For the same molecule, in [2], a half-maximal effect (EC50) was put at 2.63 nM. The “IC50 (read off the curve)” value in experiment [3] was about 0.3 nM.

B2: 4.1D3 (antibody, V domains shown)
VH: QVQLQQSGPGLVKPSQTLSLTCAISGDSVSSNSAAWNWIRQSPSRGLEWLGKTYYRFKWYSDYAVSVKGRITINPDTSKNQFSLQLNSVTPEDTAVFYCTRESTTYDLLAGPFDYWGQGTLVTVSS
VL: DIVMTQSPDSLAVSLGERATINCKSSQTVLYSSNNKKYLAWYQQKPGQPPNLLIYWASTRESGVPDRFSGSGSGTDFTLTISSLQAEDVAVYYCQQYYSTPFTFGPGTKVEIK
notes: OMT rat-derived human antibody; also called 4.1D3.Q1
Consider B2, for which the Kd in [4] was at most 0.019 nM; in experiment [5], 0.36 nM; in experiment [6], 1.3 nM; in [7], 2.8 nM; in experiment [8], 0.8 nM; in experiment [1], 0.5 nM. Besides, the “IC50 (read off the curve)” value in experiment [3] was about 0.6 nM.

B3: 4.1D3.Q1E (antibody, V domains shown)
VH: EVQLQQSGPGLVKPSQTLSLTCAISGDSVSSNSAAWNWIRQSPSRGLEWLGKTYYRFKWYSDYAVSVKGRITINPDTSKNQFSLQLNSVTPEDTAVFYCTRESTTYDLLAGPFDYWGQGTLVTVSS
VL: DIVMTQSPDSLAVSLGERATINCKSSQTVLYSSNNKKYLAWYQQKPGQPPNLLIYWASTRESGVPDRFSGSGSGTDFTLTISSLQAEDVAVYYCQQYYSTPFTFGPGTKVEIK
For the molecule B3, the EC50 (usually the concentration at which the effect is half-maximal) in experiment [2] stood at 1.36 nM.

B4: 10A7 (antibody, V domains shown)
VH: EVQLVESGGGLTQPGKSLKLSCEASGFTFSSFTMHWVRQSPGKGLEWVAFIRSGSGIVFYADAVRGRFTISRDNAKNLLFLQMNDLKSEDTAMYYCARRPLGHNTFDSWGQGTLVTVSS
VL: DIVMTQSPSSLAVSPGEKVTMTCKSSQSLYYSGVKENLLAWYQQKPGQSPKLLIYYASIRFTGVPDRFTGSGSGTDYTLTITSVQAEDMGQYFCQQGINNPLTFGDGTKLEIKR
Regarding B4, the Kd in experiment [6] is over 500 nM; in experiment [7], 55.5 nM; in [8], 32 nM. The IC50 (in general, the concentration that inhibits the measured activity by half) in experiment [9] is 17.6 nM. This molecule displayed an EC50 in experiment [10] of 0.63 nM.

For the origin of these results see patent publication US20220064286A1 (Genentech, published 2022).
